Key:
[1] = system: ^3H-uracil released in uracil-DNA glycosylase assays; assay: Uracil-DNA glycosylase activity after coupled transcription/translation in rabbit reticulocyte lysates; format: biochemical
Experimental: In vitro transcription/translation was performed with the TNT® transcription/translation system with […] as recommended by the manufacturer, using 200 ng of the expression constructs per 10 μl reaction volume. The mouse UNG1-pBluescript® construct was transcribed from the T3 promoter in the pBluescript® vector. The insert of mouse UNG2-pBluescript® was amplified by the polymerase chain reaction using Dynazyme® PCR kit, ligated into the pGEM-T vector and transcribed from the T7 promoter. […] Human UNG1 CDNA was transcribed from the T7 promoter as previously described (Slupphaug et al., 1995, Biochemistry, 34, p128-138). The samples were run on a 12% denaturing sodium dodecyl sulfate polyacrylamide gel (SDS-PAGE). The gel was dried, autoradiographed overnight and scanned on an LKB Ultroscan XL Enhanced Laser Densitometer. Uracil-DNA glycosylase activity was measured in parallel samples of the in vitro transcription/translation assay mixture containing unlabelled amino acids (Slupphaug et al., 1995, supra). A construct containing both promoters (pGL2-ProAB) linked to the luciferase gene was prepared by insertion of a PvuII/MluI fragment (the enzymes cleave in positions 418 and 1035, respectively) from the promoter region of the UNG gene into the SmaI-MluI sites of pGL2-ProB. […]

[2] = system: [^3H]cytosine-labelled DNA; assay: Release of [3H]cytosine from ds or ss labelled DNA; format: biochemical; conditions: for C-ds, pmol excised per min per mg protein: double-stranded cytosine DNA; for C-ds, pmol excised per min per mg protein / C-ss, pmol excised per min per mg protein: 6.5 μM, 10 min, 0 = below detection limit; for C-ss, pmol excised per min per mg protein: single-stranded cytosine DNA
Experimental: (§1) To test enzymatic substrate specificities, 250 ng purified human “wild type” UDG (UNGΔ84), UNGΔ84Tyr147Ala or UNGΔ84Asn204Asp, were mixed with 200 ng ds- or ss-[^3H]cytosine-labelled DNA (150 mCi/mmol), or ds- or ss-[^3H]thymine-labelled DNA (100 mCi/mmol) in 10 mM NaCl, 20 mM Tris-HCl (pH 7.5), 1 mM EDTA, 1 mM dithiothreitol and 0.5 mg/ml bovine serum albumin (final concentrations) in 20 μl separate reactions. The final concentrations of the [^3H]cytosine-DNA (C) and [^3H]thymine-DNA (T) substrates were 6.5 μM and 10 μM, respectively. Release of radioactivity as a function of time was measured at 37° C. These conditions are later referred to as standard conditions. Substrate synthesis and processing of samples for scintillation counting were as described in Krokan and Wittwer (1981) Nucl. Acids Res., 9: 2599-2613. Single-stranded substrate was generated by boiling double-stranded substrate for 10 min, followed by rapid cooling on ice.
(§2) For measuring release of uracil from double-stranded (U-ds) or single-stranded (U-ss) DNA the various mutant enzymes (prepared as described in Example 1 and by analogous site-directed mutagenesis methods and identical expression and purification methods) were incubated with 200 ng ds- or ss-[^3H]dUMP-labelled DNA (500 mCi/mmol, 2 μM final concentration) in 20 μl separate reactions for 10 min under standard conditions as described in Example 1. For measuring release of [^3H]cytosine or [^3H]thymine, assays were performed as described in Example 1 using an incubation time of 10 min. Uracil inhibition was analysed by adding 5 mM uracil (final concentration) to a standard U-ds assay. 0 activity indicates activity below detection limit (10 pmol per mg protein per min) with 100 ng enzyme and 200 ng DNA substrate at standard conditions.

[^3H]dUMP-labelled DNA [3] = Uracil inhibition in standard U-ds assay; format: biochemical; conditions: 5 mM uracil added to standard U-ds assay
Experimental: as §2

[^3H]dUMP-labelled DNA [4] = Release of uracil from ds or ss [3H]dUMP-labelled DNA; format: biochemical; conditions: for U-ds, pmol excised per min per mg protein: double-stranded uracil DNA, 0 = below detection limit (10 pmol per mg protein per min); for U-ds, pmol excised per min per mg protein / U-ss, pmol excised per min per mg protein: 2 μM, 10 min, 37° C.; for U-ss, pmol excised per min per mg protein: single-stranded uracil DNA, 0 = below detection limit
Experimental: as §1, §2

[5] = system: Escherichia coli recA^+ host cells (NR8051 and NR8052); assay: Survival of E. coli host cells expressing CDG or TDG; format: cell-based; conditions: for Survival of host cells after induction by IPTG: both NR8051 and NR8052, within 5 hrs; for Survival of recA^+ host cells carrying uninduced plasmid: data not shown
[6] = system: [^3H]cytosine-labelled DNA; assay: Kinetic parameters on cytosine substrate; format: biochemical; conditions: for Kcat: calculated from Vmax assuming Mr=25000
Experimental: as §1
(§3) The kinetic parameters were determined using six different substrate concentrations to obtain the Km and Vmax values. Duplicate samples were incubated for 20 min using standard assay buffer conditions and substrates as specified. Km and Vmax were calculated using the computer program Enzpack, version 3.0 after the method of Wilkinson (1961) Biochem. J., 80: 324-332.

[^3H]dUMP-labelled DNA [7] = Kinetic parameters on uracil substrate; format: biochemical; conditions: for Kcat: calculated from Vmax assuming Mr=25000
Experimental: The final concentrations of the [^3H]cytosine-DNA (C) and [^3H]thymine-DNA (T) substrates were 6.5 μM and 10 μM, respectively. Release of radioactivity as a function of time was measured at 37° C. These conditions are later referred to as standard conditions. Substrate synthesis and processing of samples for scintillation counting were as described in Krokan and Wittwer (1981) Nucl. Acids Res., 9: 2599-2613. Single-stranded substrate was generated by boiling double-stranded substrate for 10 min, followed by rapid cooling on ice.
as §3

[8] = system: Escherichia coli DH5α (recA^−); assay: Cytotoxicity in recA- background; format: cell-based; conditions: E. coli DH5α, even without induction; data not shown
[9] = system: [^3H]thymine-labelled DNA; assay: Release of [3H]thymine from ds or ss labelled DNA; format: biochemical; conditions: for T-ds, pmol excised per min per mg protein: double-stranded thymine DNA; for T-ds, pmol excised per min per mg protein / T-ss, pmol excised per min per mg protein: 10 μM, 10 min, 0 = below detection limit; for T-ss, pmol excised per min per mg protein: single-stranded thymine DNA
Experimental: as §1, §2

[10] = system: E. coli ung^+ strain (NR8051); assay: Frequency of rifampicin resistant mutations, ung+ strain; format: cell-based
Experimental: An overnight culture of E. coli strains NR8051 and NR8052 (both recA^+, provided by Tomas Kunkel of National Institute of Environmental Health, USA) containing plasmids pTrc99A, pTUNGΔ84, UNGΔ84Tyr147Ala and UNGΔ84Asn204Asp were prepared as described in Example 1 and grown in LB-medium with ampicillin (100 μg/ml) at 30° C. The culture was then diluted 1:20 in fresh medium and cultured for 5 hours at 37° C. Induced culture contained 1 mM IPTG in the LB-medium. To determine the number of rifampicin resistant bacteria, 100 μl of the culture were mixed with 3 ml top agarose and poured on LB plates containing 100 μg/ml rifampicin and incubated overnight at 37° C. Colonies were counted and the number of rifampicin resistant colonies per 10^8 viable cells was calculated.

[11] = system: [^3H]thymine-labelled DNA; assay: Kinetic parameters on thymine substrate; format: biochemical; conditions: for Kcat: calculated from Vmax assuming Mr=25000
Experimental: as §1, §3

## mouse UNG2: mouse homolog of human UNG2
[1]; after subtraction of background of 123 dpm
  dpm (^3H-uracil released): 856 dpm
[1]; translation in rabbit reticulocyte lysates
  Activity (dpm/area), relative specific activity: 16784 dpm/area

B1: Asn204Asp: human UDG mutant, codon 204 Asn changed to Asp; cytosine-DNA glycosylase (CDG) (protein)
chain: MGVFCLGPWGLGRKLRTPGKGPLQLLSRLCGDHLQAIPAKKAPAGQEEPGTPPSSPLSAEQLDRIQRNKAAALLRLAARNVPVGFGESWKKHLSGEFGKPYFIKLMGFVAEERKHYTVYPPPHQVFTWTQMCDIKDVKVVILGQDPYHGPNQAHGLCFSVQRPVPPPPSLENIYKELSTDIEDFVHPGHGDLSGWAKQGVLLLDAVLTVRAHQANSHKERGWEQFTDAVVSWLNQNSNGLVFLLWGSYAQKKGSAIDRKRHHVLQTAHPSPLSVYRGFFGCRHFSKTNELLQKSGKKPIDWKEL
[2]
  C-ds, pmol excised per min per mg protein: 3.0 × 10^2 pmol excised per min per mg protein
[2]; ss versus ds substrate
  Preference for single stranded substrate: 10 fold
[^3H]dUMP-labelled DNA [3]
  Inhibition 5 mM Uracil: 0%
[^3H]dUMP-labelled DNA [4]
  U-ds, pmol excised per min per mg protein: 1.7 × 10^4 pmol excised per min per mg protein
  U-ss, pmol excised per min per mg protein: 1.6 × 10^5 pmol excised per min per mg protein
[^3H]dUMP-labelled DNA [4]; uracil release, ds and ss
  UDG activity remaining compared with wild type: 0.04-0.16%
[5]
  Survival of host cells after induction by IPTG: less than 50%
  Survival of recA^+ host cells carrying uninduced plasmid: equal to that of the parental cell carrying plasmid pTrc99A
[6]; C-ds substrate
  Km: 35 µM
  Kcat: 0.002 s⁻¹
[6]; C-ss substrate
  Km: 5.3 µM
  Kcat: 0.0065 s⁻¹
[^3H]dUMP-labelled DNA [7]; U-ds substrate
  Km: 2.4 µM
  Kcat: 0.02 s⁻¹
[^3H]dUMP-labelled DNA [7]; U-ss substrate
  Km: 2 µM
  Kcat: 0.25 s⁻¹
[8]
  Cytotoxicity in recA^− background: highly cytotoxic
[9]
  T-ds, pmol excised per min per mg protein: 0 pmol excised per min per mg protein
  T-ss, pmol excised per min per mg protein: 0 pmol excised per min per mg protein
[10]; E. coli ung^+ cells, uninduced
  Factor of increase of mutation frequency compared to host cells carrying parental plasmid pTrc99A: 8.6
[10]; induced ung^+ cells
  Factor of increase of mutation frequency compared to host cells carrying parental plasmid pTrc99A: approximately 8.9

B2: Tyr147Ala (protein)
chain: MGVFCLGPWGLGRKLRTPGKGPLQLLSRLCGDHLQAIPAKKAPAGQEEPGTPPSSPLSAEQLDRIQRNKAAALLRLAARNVPVGFGESWKKHLSGEFGKPYFIKLMGFVAEERKHYTVYPPPHQVFTWTQMCDIKDVKVVILGQDPAHGPNQAHGLCFSVQRPVPPPPSLENIYKELSTDIEDFVHPGHGDLSGWAKQGVLLLNAVLTVRAHQANSHKERGWEQFTDAVVSWLNQNSNGLVFLLWGSYAQKKGSAIDRKRHHVLQTAHPSPLSVYRGFFGCRHFSKTNELLQKSGKKPIDWKEL
[11]; T-ds substrate
  Km: 6 µM
  Kcat: 0.001 s⁻¹
[11]; T-ss substrate
  Km: 1.4 µM
  Kcat: 0.00033 s⁻¹
[2]
  C-ds, pmol excised per min per mg protein: 0 pmol excised per min per mg protein
  C-ss, pmol excised per min per mg protein: 0 pmol excised per min per mg protein
[^3H]dUMP-labelled DNA [3]
  Inhibition 5 mM Uracil: 0%
[^3H]dUMP-labelled DNA [4]
  U-ds, pmol excised per min per mg protein: 2.2 × 10^4 pmol excised per min per mg protein
  U-ss, pmol excised per min per mg protein: 2.2 × 10^4 pmol excised per min per mg protein
[5]
  Survival of host cells after induction by IPTG: < 10%
  Survival of recA^+ host cells carrying uninduced plasmid: equal to that of the parental cell carrying plasmid pTrc99A
[^3H]dUMP-labelled DNA [7]; U-ds substrate
  Km: 3.5 µM
  Kcat: 0.0167 s⁻¹
[^3H]dUMP-labelled DNA [7]; U-ss substrate
  Km: 0.3 µM
  Kcat: 0.01 s⁻¹
[8]
  Cytotoxicity in recA^− background: highly cytotoxic
[9]
  T-ds, pmol excised per min per mg protein: 1.3 × 10^3 pmol excised per min per mg protein
  T-ss, pmol excised per min per mg protein: 7.5 × 10^2 pmol excised per min per mg protein
[9]; ss versus ds substrate
  Preference for single stranded substrate: decreased preference
[10]; E. coli ung^+ cells, uninduced
  Factor of increase of mutation frequency compared to host cells carrying parental plasmid pTrc99A: 39
[10]; Escherichia coli
  Mutation frequency in vivo relative to CDG activity: 10 fold
[10]; induced ung^+ cells
  Factor of increase of mutation frequency compared to host cells carrying parental plasmid pTrc99A: ~94.4

B3: Asn204Gln: human UDG (UNGΔ84) mutant with Asn204 replaced by Gln (protein)
chain: MGVFCLGPWGLGRKLRTPGKGPLQLLSRLCGDHLQAIPAKKAPAGQEEPGTPPSSPLSAEQLDRIQRNKAAALLRLAARNVPVGFGESWKKHLSGEFGKPYFIKLMGFVAEERKHYTVYPPPHQVFTWTQMCDIKDVKVVILGQDPYHGPNQAHGLCFSVQRPVPPPPSLENIYKELSTDIEDFVHPGHGDLSGWAKQGVLLLQAVLTVRAHQANSHKERGWEQFTDAVVSWLNQNSNGLVFLLWGSYAQKKGSAIDRKRHHVLQTAHPSPLSVYRGFFGCRHFSKTNELLQKSGKKPIDWKEL
[2]
  C-ds, pmol excised per min per mg protein: 0 pmol excised per min per mg protein
  C-ss, pmol excised per min per mg protein: 0 pmol excised per min per mg protein
[^3H]dUMP-labelled DNA [3]
  Inhibition 5 mM Uracil: 70%
[^3H]dUMP-labelled DNA [4]
  U-ds, pmol excised per min per mg protein: 1.5 × 10^6 pmol excised per min per mg protein
  U-ss, pmol excised per min per mg protein: 2.2 × 10^6 pmol excised per min per mg protein
[^3H]dUMP-labelled DNA [7]; U-ds substrate
  Km: 0.4 µM
  Kcat: 1.1 s⁻¹
[^3H]dUMP-labelled DNA [7]; U-ss substrate
  Km: 0.23 µM
  Kcat: 1.48 s⁻¹
[9]
  T-ds, pmol excised per min per mg protein: 0 pmol excised per min per mg protein
  T-ss, pmol excised per min per mg protein: 0 pmol excised per min per mg protein

— patent US6713294B1, “DNA glycosylases and their use” (priority 1996, dated 2004)
